Test results as given in article PMC10307831, “GATA zinc finger protein p66β promotes breast cancer cell migration by acting as a co-activator of Snail”.

Experiments:
[1] = biological target: GST-Snail-ΔZn (zinc finger mutant) (UniProt O95863 1-264, H176D;C180A;C210D;H230D;H252D;C259A); assay: pull-down; EMSA: 10 mM Tris pH 7.5, 50 mM KCl, 1 mM DTT, 5 mM MgCl2, 2.5% glycerol, 0.05% NP-40, 50 ng/ul poly(dI.dC), 600 fmol probe, 12 ug GST protein in 20 ul; gel 6% 0.5x TBE 4 C. Pull-down: NeutrAvidin beads, 8 h 4 C, washed in IP buffer (50 mM Tris pH 7.5, 150 mM NaCl, 1% Triton X-100); conditions: protein: recombinant; tags: N-terminal GST; label: biotin (probe); blunt
GST-Snail-ΔZn (zinc finger mutant), sequence (O95863 whole entry H176D/C180A/C210D/H230D/H252D/C259A): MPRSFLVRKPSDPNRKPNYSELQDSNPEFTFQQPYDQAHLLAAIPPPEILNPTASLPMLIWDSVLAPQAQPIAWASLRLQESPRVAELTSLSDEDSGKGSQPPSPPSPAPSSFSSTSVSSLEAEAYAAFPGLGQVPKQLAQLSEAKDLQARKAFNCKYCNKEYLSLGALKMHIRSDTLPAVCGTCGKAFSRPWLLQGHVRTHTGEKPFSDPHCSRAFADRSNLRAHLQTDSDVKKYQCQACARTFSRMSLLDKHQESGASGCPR

GST-Snail;Flag-p66β = GST-Snail;Flag-p66β (human?;human?, UniProt O95863;Q8WXI9 1-264;1-593, |); assay: pull-down; p66β enhanced Snail binding; EMSA: 10 mM Tris pH 7.5, 50 mM KCl, 1 mM DTT, 5 mM MgCl2, 2.5% glycerol, 0.05% NP-40, 50 ng/ul poly(dI.dC), 600 fmol probe, 12 ug GST protein in 20 ul; gel 6% 0.5x TBE 4 C. Pull-down: NeutrAvidin beads, 8 h 4 C, washed in IP buffer (50 mM Tris pH 7.5, 150 mM NaCl, 1% Triton X-100); conditions: protein: recombinant;recombinant; tags: N-terminal GST (pGEX-4T-1);Flag; label: biotin (probe); blunt
GST-Snail;Flag-p66β, sequence (O95863 whole entry, chain 1 of 2): as the sequence (O95863 whole entry H176D/C180A/C210D/H230D/H252D/C259A) above, with D176H, A180C, D210C, D230H, D252H, A259C counted along it
GST-Snail;Flag-p66β, sequence (Q8WXI9 whole entry, chain 2 of 2): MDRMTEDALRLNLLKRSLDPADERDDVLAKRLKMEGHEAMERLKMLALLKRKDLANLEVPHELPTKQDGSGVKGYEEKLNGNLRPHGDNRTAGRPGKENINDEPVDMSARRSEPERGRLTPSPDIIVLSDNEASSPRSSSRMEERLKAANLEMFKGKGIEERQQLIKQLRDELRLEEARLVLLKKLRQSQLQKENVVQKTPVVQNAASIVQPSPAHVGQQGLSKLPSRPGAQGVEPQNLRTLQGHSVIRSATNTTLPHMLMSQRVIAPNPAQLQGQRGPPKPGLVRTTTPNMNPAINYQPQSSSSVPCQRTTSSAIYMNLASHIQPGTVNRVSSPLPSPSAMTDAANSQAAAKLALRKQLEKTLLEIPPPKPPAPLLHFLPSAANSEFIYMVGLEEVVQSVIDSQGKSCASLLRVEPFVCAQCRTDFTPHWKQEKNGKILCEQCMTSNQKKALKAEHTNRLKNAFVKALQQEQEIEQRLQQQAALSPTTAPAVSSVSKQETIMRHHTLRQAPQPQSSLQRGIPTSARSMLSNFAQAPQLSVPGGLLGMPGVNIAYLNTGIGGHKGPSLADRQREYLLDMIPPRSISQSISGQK

B1: COL6A2-G-box-WT (dsDNA)
DNA 1: GGCCCCCTCCTCCCATCCGCG
DNA 2: CGCGGATGGGAGGAGGGGGCC
binding result [1]: no binding
binding result (GST-Snail;Flag-p66β): binds
